Reference: paper PMC9482650, “Quantitative fragmentomics allow affinity mapping of interactomes” (Nature Communications, 2022)

How the values were obtained:
Assay in all cases: holdup assay
Set-up in all cases: key: below the threshold = too weak to quantify, mostly under pKd 3.1 to 4
[1] = target: T1, SNTB1, Q13884
T1 sequence (Q13884 107-205, limits assumed, looked up): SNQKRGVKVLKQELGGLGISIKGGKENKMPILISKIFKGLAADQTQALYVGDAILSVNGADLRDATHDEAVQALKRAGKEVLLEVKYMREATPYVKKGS

[2] = target: DLG4_2, P78352
[3] = target: T2, PDZD2_2, O15018
T2 sequence (O15018 329-429, limits assumed, looked up): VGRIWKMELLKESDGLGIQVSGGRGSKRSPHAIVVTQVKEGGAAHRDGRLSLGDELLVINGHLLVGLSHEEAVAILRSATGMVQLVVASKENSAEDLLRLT

[4] = target: T3, APBA2_2, Q99767
T3 sequence (Q99767 654-744, limits assumed, looked up): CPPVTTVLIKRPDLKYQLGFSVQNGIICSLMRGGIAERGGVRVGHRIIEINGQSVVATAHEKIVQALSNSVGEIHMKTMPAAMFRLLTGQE

[5] = target: MAGI2_5, Q86UL8
[6] = target: Inadl_10, Q8NI35
[7] = target: MAST1, Q9Y2H9
[8] = target: HTRA2, O43464
[9] = target: GRID2IP_2, A4D2P6
[10] = target: GRASP, Q7Z6J2
[11] = target: DLG4_1, P78352
[12] = target: GRIP2_5, Q9C0E4
[13] = target: LNX1_2, Q8TBB1
[14] = target: LAP2, Q96RT1
[15] = target: DLG2_3, Q15700
[16] = target: FRMPD4, Q14CM0
[17] = target: MAST2, Q6P0Q8
[18] = target: HTRA1, Q92743
[19] = target: LNX1_3, Q8TBB1
[20] = target: IL16_4, Q14005
[21] = target: T4, SHANK1, Q9Y566
T4 sequence (Q9Y566 658-767, limits assumed, looked up): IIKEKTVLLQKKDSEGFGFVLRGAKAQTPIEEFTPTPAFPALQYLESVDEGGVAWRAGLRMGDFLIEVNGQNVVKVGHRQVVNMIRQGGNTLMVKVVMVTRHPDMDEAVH

[22] = target: T5, ARHGAP21, Q5T5U3
T5 sequence (Q5T5U3 45-169, limits assumed, looked up): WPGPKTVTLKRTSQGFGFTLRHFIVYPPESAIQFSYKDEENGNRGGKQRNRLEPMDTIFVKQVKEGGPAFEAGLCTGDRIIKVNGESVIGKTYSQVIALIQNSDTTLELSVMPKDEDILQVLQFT

[23] = target: MAGI2_4, Q86UL8
[24] = target: GIPC2, Q8TF65
[25] = target: GORASP2, Q9H8Y8
[26] = target: Inadl_6, Q8NI35
[27] = target: MAGI3_2, Q5TCQ9
[28] = target: IL16_1, Q14005
[29] = target: DLG4_3, P78352
[30] = target: T6, RADIL, Q96JH8
T6 sequence (Q96JH8 971-1071, limits assumed, looked up): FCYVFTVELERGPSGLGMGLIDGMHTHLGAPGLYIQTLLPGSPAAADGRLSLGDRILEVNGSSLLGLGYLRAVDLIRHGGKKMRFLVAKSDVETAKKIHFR

[31] = target: DLG1_2, Q12959
[32] = target: PDLIM1, O00151
[33] = target: Inadl_1, Q8NI35
[34] = plain residues with an end cap or a label only (N-terminal biotin on a linker: ahx)
[35] = plain residues with an end cap or a label only (N-terminal biotin on a linker: ado-ado)

LNX1_3, Q8TBB1, sequence (Q8TBB1 500-596): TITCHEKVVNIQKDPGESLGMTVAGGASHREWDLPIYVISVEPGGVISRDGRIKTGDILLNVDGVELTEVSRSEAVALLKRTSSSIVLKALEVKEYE
Inadl_10, Q8NI35, sequence (Q8NI35 1673-1763): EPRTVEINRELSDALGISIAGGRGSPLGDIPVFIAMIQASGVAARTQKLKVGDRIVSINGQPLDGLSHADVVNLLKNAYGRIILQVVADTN
HTRA1, Q92743, sequence (Q92743 360-477): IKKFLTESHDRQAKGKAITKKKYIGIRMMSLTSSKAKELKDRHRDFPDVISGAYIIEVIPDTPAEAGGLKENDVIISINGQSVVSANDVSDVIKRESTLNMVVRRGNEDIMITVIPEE
MAST2, Q6P0Q8, sequence (Q6P0Q8 1099-1202): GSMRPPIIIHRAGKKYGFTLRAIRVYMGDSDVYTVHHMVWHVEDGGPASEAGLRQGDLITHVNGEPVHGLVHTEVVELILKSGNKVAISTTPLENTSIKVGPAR
DLG4_3, P78352, sequence (P78352 306-403): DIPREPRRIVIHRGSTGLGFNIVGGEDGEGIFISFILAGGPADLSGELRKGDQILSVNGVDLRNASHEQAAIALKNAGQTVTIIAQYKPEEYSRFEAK
IL16_1, Q14005, sequence (Q14005 210-306): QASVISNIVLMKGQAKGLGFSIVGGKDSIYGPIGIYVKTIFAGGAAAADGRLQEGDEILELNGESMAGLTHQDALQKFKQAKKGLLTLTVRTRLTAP
Inadl_1, Q8NI35, sequence (Q8NI35 113-229): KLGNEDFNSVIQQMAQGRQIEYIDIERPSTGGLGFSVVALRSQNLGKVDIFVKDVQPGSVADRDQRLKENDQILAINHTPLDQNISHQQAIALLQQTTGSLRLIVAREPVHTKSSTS
LNX1_2, Q8TBB1, sequence (Q8TBB1 371-470): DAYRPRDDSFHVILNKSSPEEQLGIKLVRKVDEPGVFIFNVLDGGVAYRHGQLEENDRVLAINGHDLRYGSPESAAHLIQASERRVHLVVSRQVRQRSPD
MAGI2_5, Q86UL8, sequence (Q86UL8 915-1017): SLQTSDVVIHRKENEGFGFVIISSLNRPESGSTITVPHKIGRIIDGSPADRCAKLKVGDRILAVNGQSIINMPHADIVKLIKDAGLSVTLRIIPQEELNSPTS
GRID2IP_2, A4D2P6, sequence (A4D2P6 272-370): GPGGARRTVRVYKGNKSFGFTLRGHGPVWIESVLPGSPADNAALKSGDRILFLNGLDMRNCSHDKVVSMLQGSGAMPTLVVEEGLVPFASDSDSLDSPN
DLG4_1, P78352, sequence (P78352 62-152): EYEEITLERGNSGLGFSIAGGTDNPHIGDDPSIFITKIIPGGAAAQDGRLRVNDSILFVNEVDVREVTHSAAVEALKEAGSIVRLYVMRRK
FRMPD4, Q14CM0, sequence (Q14CM0 67-160): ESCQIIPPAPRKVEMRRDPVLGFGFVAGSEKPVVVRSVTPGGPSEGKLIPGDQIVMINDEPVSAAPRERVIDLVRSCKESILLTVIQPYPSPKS
MAST1, Q9Y2H9, sequence (Q9Y2H9 962-1065): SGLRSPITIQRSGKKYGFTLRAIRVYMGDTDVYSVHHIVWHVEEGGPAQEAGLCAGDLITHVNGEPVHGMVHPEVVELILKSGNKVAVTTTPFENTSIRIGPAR
GRIP2_5, Q9C0E4, sequence (Q9C0E4 544-642): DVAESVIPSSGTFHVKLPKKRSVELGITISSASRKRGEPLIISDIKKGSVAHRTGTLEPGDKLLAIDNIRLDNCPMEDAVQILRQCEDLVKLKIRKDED
PDLIM1, O00151, sequence (O00151 1-87): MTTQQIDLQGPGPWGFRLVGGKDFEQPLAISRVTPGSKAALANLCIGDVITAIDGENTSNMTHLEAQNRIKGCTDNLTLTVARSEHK
GIPC2, Q8TF65, sequence (Q8TF65 112-203): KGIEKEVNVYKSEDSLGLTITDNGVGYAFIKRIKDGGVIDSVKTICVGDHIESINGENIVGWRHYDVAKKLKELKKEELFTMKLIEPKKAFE
LAP2, Q96RT1, sequence (Q96RT1 other isoform, or with tags, fused parts or gaps): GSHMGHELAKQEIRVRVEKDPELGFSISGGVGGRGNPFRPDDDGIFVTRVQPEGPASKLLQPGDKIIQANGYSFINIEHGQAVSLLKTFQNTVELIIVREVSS
Inadl_6, Q8NI35, sequence (Q8NI35 1058-1167): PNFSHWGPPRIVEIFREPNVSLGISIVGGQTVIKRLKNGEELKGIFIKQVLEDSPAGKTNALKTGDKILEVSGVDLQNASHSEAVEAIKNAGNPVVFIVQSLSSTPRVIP
HTRA2, O43464, sequence (O43464 355-458): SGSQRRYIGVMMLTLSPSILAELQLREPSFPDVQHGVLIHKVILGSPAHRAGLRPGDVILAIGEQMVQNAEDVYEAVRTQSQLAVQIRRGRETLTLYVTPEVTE
DLG1_2, Q12959, sequence (Q12959 314-412): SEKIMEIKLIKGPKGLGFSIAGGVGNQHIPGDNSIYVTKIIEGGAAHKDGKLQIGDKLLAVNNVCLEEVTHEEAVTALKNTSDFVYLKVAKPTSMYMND
MAGI2_4, Q86UL8, sequence (Q86UL8 772-865): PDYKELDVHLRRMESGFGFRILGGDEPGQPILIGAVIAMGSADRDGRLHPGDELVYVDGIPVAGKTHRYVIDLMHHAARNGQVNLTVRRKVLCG
IL16_4, Q14005, sequence (Q14005 1229-1329): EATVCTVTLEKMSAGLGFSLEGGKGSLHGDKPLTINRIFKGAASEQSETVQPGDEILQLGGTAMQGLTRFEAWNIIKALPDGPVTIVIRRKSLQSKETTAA
DLG4_2, P78352, sequence (P78352 155-259): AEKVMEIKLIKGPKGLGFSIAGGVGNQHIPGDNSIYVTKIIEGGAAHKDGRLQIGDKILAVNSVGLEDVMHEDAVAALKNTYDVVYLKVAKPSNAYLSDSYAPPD
GRASP, Q7Z6J2, sequence (Q7Z6J2 96-193): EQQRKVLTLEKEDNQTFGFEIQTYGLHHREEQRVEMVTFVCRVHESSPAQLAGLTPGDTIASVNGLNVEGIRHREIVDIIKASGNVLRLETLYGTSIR
MAGI3_2, Q5TCQ9, sequence (Q5TCQ9 398-503): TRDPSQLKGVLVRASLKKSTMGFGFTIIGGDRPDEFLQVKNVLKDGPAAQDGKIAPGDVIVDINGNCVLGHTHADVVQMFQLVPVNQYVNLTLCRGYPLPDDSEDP

B1: RTKN, Q9BST9 (peptide)
chain: QPRTWLQSPV
pKd [1, 34]: below the threshold
pKd [2, 34]: 4.27
pKd [3, 34]: 4.71
pKd [4, 34]: below the threshold
pKd [5, 34]: 4.33
pKd [6, 34]: below the threshold
pKd [7, 34]: 3.85
pKd [8, 34]: below the threshold
pKd [9, 34]: below the threshold
pKd [10, 34]: 3.9
pKd [11, 34]: 4.19
pKd [12, 34]: below the threshold
pKd [13, 34]: below the threshold
pKd [14, 34]: 4.42
pKd [15, 34]: 3.62
pKd [16, 34]: below the threshold
pKd [17, 34]: 4.13
pKd [18, 34]: below the threshold
pKd [19, 34]: below the threshold
pKd [20, 34]: below the threshold
pKd [21, 34]: 3.74
pKd [22, 34]: below the threshold
pKd [23, 34]: below the threshold
pKd [24, 34]: below the threshold
pKd [25, 34]: below the threshold
pKd [26, 34]: below the threshold
pKd [27, 34]: 4.53
pKd [28, 34]: 3.95
pKd [29, 34]: 4.35
pKd [30, 34]: below the threshold
pKd [31, 34]: 4.3
pKd [32, 34]: below the threshold
pKd [33, 34]: below the threshold

B2: PTPRG, P23470 (peptide)
chain: DPAESMESLV
pKd [1, 35]: 4.84
pKd [2, 35]: 5.01
pKd [3, 35]: 5.16
pKd [4, 35]: below the threshold
pKd [5, 35]: 5.32
pKd [6, 35]: below the threshold
pKd [7, 35]: 4.31
pKd [8, 35]: below the threshold
pKd [9, 35]: below the threshold
pKd [10, 35]: 3.62
pKd [11, 35]: 4.59
pKd [12, 35]: below the threshold
pKd [13, 35]: below the threshold
pKd [14, 35]: 3.96
pKd [15, 35]: below the threshold
pKd [16, 35]: 3.58
pKd [17, 35]: 4.69
pKd [18, 35]: 4.41
pKd [19, 35]: below the threshold
pKd [20, 35]: below the threshold
pKd [21, 35]: below the threshold
pKd [22, 35]: below the threshold
pKd [23, 35]: 4.25
pKd [24, 35]: 3.95
pKd [25, 35]: below the threshold
pKd [26, 35]: 3.88
pKd [27, 35]: 4.84
pKd [28, 35]: 4.53
pKd [29, 35]: below the threshold
pKd [30, 35]: 4.23
pKd [31, 35]: 5.03
pKd [32, 35]: below the threshold
pKd [33, 35]: below the threshold

B3: FZD10, Q9ULW2 (peptide)
chain: EIPAQSPTCV
pKd [1, 35]: 3.75
pKd [2, 35]: 4.11
pKd [3, 35]: 4.49
pKd [4, 35]: 3.63
pKd [5, 35]: 3.67
pKd [6, 35]: 3.55
pKd [7, 35]: below the threshold
pKd [8, 35]: 3.76
pKd [9, 35]: 3.67
pKd [10, 35]: 4.22
pKd [11, 35]: 4.01
pKd [12, 35]: 3.7
pKd [13, 35]: 4.13
pKd [14, 35]: 3.73
pKd [15, 35]: below the threshold
pKd [16, 35]: 3.75
pKd [17, 35]: 4.01
pKd [18, 35]: 4.57
pKd [19, 35]: below the threshold
pKd [20, 35]: below the threshold
pKd [21, 35]: 3.62
pKd [22, 35]: 4.12
pKd [23, 35]: 3.65
pKd [24, 35]: 3.74
pKd [25, 35]: 3.98
pKd [26, 35]: 3.7
pKd [27, 35]: 4.12
pKd [28, 35]: 3.79
pKd [29, 35]: below the threshold
pKd [30, 35]: 4.47
pKd [31, 35]: 3.86
pKd [32, 35]: 3.68
pKd [33, 35]: 3.58
